For orientation: Kd means the equilibrium constant for the complex coming apart.

Kd and percent reduction of Ku co-precipitated, relative to wild-type GFP-WRN data for 2 substances are collected here from paper PMC4831024.

For test [1], the target named is Ku (Homo sapiens) (UniProt P12956). The settings on record: cited from earlier work.
Test [2] concerns the target GFP–WRN ΔX (deleted XLF-like motif) (human) (UniProt Q14191). Kind of test: co-IP; GFP-tagged proteins recovered on GFP-TRAP beads from transfected HEK293T extract (25 mM Tris-HCl pH 7.5, 150 mM NaCl, 10% glycerol, 0.5% Triton X-100, 1 mM DTT), 1 h at 4 °C; immunoblot for GFP, Ku80 and DNA–PKcs; Ku quantified by ImageJ relative to wild-type WRN. For orientation: A western blot detects proteins with antibodies after separation by electrophoresis.

GFP–WRN ΔX (deleted XLF-like motif) (human), sequence (Q14191 whole entry, stated change not applied): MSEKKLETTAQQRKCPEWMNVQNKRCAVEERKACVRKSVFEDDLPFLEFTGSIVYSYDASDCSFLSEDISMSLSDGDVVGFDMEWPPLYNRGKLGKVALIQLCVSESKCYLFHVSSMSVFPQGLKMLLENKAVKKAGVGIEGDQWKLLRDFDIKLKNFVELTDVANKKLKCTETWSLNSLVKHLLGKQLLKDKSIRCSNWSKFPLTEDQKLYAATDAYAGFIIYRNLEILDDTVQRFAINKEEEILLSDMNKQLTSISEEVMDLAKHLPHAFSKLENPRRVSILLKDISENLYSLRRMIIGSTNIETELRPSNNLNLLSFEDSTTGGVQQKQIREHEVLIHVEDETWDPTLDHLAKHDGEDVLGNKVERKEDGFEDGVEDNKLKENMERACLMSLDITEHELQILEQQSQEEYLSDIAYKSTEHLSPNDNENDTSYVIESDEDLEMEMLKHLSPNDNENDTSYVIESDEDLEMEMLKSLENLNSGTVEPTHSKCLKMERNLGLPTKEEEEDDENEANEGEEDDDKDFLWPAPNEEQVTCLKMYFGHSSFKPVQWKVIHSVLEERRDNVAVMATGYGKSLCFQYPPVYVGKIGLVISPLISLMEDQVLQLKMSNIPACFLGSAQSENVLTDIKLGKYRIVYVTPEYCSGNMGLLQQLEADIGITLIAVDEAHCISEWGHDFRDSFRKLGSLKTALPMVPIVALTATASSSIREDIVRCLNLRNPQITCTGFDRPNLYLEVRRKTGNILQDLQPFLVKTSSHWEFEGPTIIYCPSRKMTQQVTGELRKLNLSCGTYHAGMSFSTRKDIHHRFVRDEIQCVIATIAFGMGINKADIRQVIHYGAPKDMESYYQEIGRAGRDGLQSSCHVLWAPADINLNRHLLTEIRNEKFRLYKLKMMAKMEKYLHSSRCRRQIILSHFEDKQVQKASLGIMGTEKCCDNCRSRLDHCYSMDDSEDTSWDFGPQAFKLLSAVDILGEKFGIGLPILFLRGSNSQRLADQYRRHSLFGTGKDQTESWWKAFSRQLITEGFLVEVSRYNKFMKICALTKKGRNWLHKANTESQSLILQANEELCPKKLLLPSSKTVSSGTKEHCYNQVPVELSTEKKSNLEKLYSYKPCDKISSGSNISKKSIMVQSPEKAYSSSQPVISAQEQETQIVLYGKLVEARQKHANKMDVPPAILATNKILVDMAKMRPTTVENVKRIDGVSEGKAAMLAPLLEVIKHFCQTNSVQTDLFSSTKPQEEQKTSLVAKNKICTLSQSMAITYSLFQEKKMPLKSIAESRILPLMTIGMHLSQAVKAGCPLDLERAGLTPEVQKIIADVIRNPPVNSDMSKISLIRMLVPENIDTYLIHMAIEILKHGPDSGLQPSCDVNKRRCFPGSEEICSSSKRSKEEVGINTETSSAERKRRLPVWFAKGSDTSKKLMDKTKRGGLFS
Ku (Homo sapiens), sequence (P12956 2-609, chain 1 of 2): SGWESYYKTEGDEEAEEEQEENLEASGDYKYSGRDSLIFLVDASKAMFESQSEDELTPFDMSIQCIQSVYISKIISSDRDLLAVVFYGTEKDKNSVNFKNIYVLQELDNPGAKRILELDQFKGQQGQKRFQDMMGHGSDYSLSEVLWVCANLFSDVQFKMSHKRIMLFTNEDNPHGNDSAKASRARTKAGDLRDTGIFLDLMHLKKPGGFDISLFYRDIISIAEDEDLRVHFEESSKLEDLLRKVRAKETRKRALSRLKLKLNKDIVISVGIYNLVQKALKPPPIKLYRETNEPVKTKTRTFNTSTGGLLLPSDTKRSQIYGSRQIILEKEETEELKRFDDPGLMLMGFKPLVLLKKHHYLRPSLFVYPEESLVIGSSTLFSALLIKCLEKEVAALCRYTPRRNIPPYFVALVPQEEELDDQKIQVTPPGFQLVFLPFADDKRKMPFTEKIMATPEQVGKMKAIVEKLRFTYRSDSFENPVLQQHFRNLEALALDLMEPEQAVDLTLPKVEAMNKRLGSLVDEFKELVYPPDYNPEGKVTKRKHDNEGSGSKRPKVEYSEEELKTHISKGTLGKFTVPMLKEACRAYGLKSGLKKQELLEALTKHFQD
Ku (Homo sapiens), sequence (P13010 2-732, chain 2 of 2, further chain): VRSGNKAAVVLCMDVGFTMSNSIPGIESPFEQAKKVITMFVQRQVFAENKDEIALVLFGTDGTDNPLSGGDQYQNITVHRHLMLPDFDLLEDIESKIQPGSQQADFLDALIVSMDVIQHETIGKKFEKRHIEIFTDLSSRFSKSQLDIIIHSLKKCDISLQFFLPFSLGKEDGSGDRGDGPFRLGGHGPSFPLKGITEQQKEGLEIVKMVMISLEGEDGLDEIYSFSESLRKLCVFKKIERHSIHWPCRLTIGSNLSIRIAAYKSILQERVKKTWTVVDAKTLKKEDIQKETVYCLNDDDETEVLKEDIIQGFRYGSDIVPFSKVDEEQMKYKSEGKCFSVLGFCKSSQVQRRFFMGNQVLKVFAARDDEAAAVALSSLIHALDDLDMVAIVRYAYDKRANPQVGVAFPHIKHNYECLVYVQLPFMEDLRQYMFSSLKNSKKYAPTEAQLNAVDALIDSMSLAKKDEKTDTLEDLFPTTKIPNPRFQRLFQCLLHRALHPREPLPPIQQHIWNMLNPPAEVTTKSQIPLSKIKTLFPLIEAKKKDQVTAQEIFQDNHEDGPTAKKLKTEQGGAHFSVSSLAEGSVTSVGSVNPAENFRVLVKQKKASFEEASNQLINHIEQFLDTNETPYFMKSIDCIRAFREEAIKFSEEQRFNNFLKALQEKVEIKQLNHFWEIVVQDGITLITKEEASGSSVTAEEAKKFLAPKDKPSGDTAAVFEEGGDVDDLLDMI
Ku80, endogenous, sequence (P13010 whole entry): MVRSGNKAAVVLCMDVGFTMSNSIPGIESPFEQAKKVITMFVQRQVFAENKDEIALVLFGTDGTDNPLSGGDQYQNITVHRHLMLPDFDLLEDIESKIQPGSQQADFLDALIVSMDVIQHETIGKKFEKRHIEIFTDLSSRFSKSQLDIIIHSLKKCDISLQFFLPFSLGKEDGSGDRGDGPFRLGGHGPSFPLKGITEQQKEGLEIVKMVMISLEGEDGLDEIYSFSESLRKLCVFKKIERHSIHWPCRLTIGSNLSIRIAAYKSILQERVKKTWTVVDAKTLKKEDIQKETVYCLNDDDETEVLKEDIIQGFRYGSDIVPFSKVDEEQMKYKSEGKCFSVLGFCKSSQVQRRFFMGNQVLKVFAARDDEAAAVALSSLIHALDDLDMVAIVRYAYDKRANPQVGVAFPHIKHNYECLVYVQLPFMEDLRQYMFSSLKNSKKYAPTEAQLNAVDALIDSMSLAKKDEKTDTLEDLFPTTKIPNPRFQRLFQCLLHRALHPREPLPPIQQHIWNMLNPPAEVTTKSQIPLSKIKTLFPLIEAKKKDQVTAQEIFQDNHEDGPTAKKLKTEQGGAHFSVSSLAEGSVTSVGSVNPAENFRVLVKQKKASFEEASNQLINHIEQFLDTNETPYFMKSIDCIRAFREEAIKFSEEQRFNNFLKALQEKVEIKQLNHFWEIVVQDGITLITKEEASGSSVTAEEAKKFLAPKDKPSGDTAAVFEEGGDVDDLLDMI

Consider APLF KBM (from UniProt Q8IW19), for which, in test [1], the Kd was 600 nM.

“Ku80, endogenous (from UniProt P13010 1-732) (natural protein)” showed a percent reduction of Ku co-precipitated, relative to wild-type GFP-WRN in test [2] of 30%.
